Tested on: recombinant Histone H3

human coactivator-associated arginine methyltransferase 1 (hCARM1), full-length, purified from baculovirus infected insect cells
methylation of Histone H3 (in vitro methylation assay, SDS-PAGE and film): hCARM1 methylates Histone H3 efficiently
